T1: RAP74, P35269
T1 chain: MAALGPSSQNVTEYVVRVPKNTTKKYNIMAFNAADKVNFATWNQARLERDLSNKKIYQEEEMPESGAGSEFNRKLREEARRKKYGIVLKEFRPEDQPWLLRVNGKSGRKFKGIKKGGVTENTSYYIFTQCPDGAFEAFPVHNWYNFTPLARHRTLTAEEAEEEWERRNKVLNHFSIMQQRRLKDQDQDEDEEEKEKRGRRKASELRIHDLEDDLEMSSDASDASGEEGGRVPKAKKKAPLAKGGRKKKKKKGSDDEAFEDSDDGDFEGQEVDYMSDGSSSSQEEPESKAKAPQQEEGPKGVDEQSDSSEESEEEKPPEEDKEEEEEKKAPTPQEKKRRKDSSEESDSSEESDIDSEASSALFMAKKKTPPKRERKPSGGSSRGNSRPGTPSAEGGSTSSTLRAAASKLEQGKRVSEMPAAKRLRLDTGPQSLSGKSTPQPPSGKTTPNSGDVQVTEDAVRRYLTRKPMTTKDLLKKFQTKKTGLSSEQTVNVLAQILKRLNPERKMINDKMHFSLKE

B1: SCP1 261 (protein)
chain: MDSSAVITQISKEEARGPLRGKGDQKSAASQKPRSRGILHSLFCCVCRDDGEALPAHSGAPLLVEENGAIPKTPVQYLLPEAKAQDSDKICVVIDLDETLVHSSFKPVNNADFIIPVEIDGVVHQVYVLKRPHVDEFLQRMGELFECVLFTASLAKYADPVADLLDKWGAFRARLFRESCVFHRGNYVKDLSRLGRDLRRVLILDNSPASYVFHPDNAVPVASWFDNMSDTELHDLLPFFEQLSRVDDVYSVLRQPRPGS
B2: FCP1 (protein)
chain: MEVPAAGRVPAEGAPTAAVAEVRCPGPAPLRLLEWRVAAGAAVRIGSVLAVFEAAASAQSSGASQSRVASGGCVRPARPERRLRSERAGVVRELCAQPGQVVAPGAVLVRLEGCSHPVVMKGLCAECGQDLTQLQSKNGKQQVPLSTATVSMVHSVPELMVSSEQAEQLGREDQQRLHRNRKLVLMVDLDQTLIHTTEQHCQQMSNKGIFHFQLGRGEPMLHTRLRPHCKDFLEKIAKLYELHVFTFGSRLYAHTIAGFLDPEKKLFSHRILSRDECIDPFSKTGNLRNLFPCGDSMVCIIDDREDVWKFAPNLITVKKYVYFQGTGDMNAPPGSRESQTRKKVNHSRGTEVSEPSPPVRDPEGVTQAPGVEPSNGLEKPARELNGSEAATPRDSPRPGKPDERDIWPPAQAPTSSQELAGAPEPQGSCAQGGRVAPGQRPAQGATGTDLDFDLSSDSESSSESEGTKSSSSASDGESEGKRGRQKPKAAPEGAGALAQGSSLEPGRPAAPSLPGEAEPGAHAPDKEPELGGQEEGERDGLCGLGNGCADRKEAETESQNSELSGVTAGESLDQSMEEEEEEDTDEDDHLIYLEEILVRVHTDYYAKYDRYLNKEIEEAPDIRKIVPELKSKVLADVAIIFSGLHPTNFPIEKTREHYHATALGAKILTRLVLSPDAPDRATHLIAARAGTEKVLQAQECGHLHVVNPDWLWSCLERWDKVEEQLFPLRDDHTKAQRENSPAAFPDREGVPPTALFHPMPVLPKAQPGPEVRIYDSNTGKLIRTGARGPPAPSSSLPIRQEPSSFRAVPPPQPQMFGEELPDAQDGEQPGPSRRKRQPSMSETMPLYTLCKEDLESMDKEVDDILGEGSDDSDSEKRRPEEQEEEPQPRKPGTRRERTLGAPASSERSAAGGRGPRGHKRKLNEEDAASESSRESSNEDEGSSSEADEMAKALEAELNDLM
B3: GST-SCP1 214 (protein)
chain: MMGRPCLLTAGRPCLWRRMAPSLRQTPVQYLLPEAKAQDSDKICVVIDLDETLVHSSFKPVNNADFIIPVEIDGVVHQVYVLKRPHVDEFLQRMGELFECVLFTASLAKYADPVADLLDKWGAFRARLFRESCVFHRGNYVKDLSRLGRDLRRVLILDNSPASYVFHPDNAVPVASWFDNMSDTELHDLLPFFEQLSRVDDVYSVLRQPRPGS

Assays:
[1] = molecular target: T1, RAP74, P35269
[2] = molecular target: GST-CTDo
[3] = molecular target: Ser 2 phosphopeptide (28 aa CTD peptide, 4 heptad repeats)
[4] = molecular target: Ser 5 phosphopeptide (28 aa CTD peptide, 4 heptad repeats)

Protein | CTD phosphatase activity (dephosphorylation of RNAP IIO prepared by TFIIH), with and without 7 pmol RAP74 [1] | CTD phosphatase assay (mobility shift of GST-CTDo to GST-CTDa) [2] | phosphate released from phosphopeptide (malachite green) [3] | phosphate released from phosphopeptide (malachite green) [4]
B1 | RAP74 shifted the dose response curve for SCP1 catalyzed dephosphorylation of RNAP IIO to an approximately 10-fold lower concentration | – | – | –
B2 | – | FCP1 does not dephosphorylate rCTDo even at concentrations 100 times higher than that required to dephosphorylate RNAP IIO | Mammalian FCP1, within a comparable concentration range, did not act on either phosphopeptide | Mammalian FCP1, within a comparable concentration range, did not act on either phosphopeptide
B3 | – | SCP1 dephosphorylates rCTDo and RNAP IIO with comparable efficiency | SCP1 preferentially dephosphorylates the Ser 5 phosphopeptide compared to the Ser 2 phosphopeptide | SCP1 preferentially dephosphorylates the Ser 5 phosphopeptide compared to the Ser 2 phosphopeptide

Reference: patent US20070172470
